According to patent US20190194280A1:

B1: Aβ2-11 or APP 770 (A673-E682) (peptide)
peptide: AEFRHDSGYE
B2: Aβ14-23 or APP 770 (H685-D694) (peptide)
peptide: HQKLVFFAED
B3: Aβ13-22 or APP 770 (H684-E693) (peptide)
peptide: HHQKLVFFAE

Target: Serum samples collected at week 16 from patients immunized with UBI AD vaccine (UB-311)
Experiment: comp. ELISA, serum P105

Question: With B1 as the binder, how does the IC50-based peak height read?
Answer: 0

Question: How did the IC50-based peak height turn out when B2 was run?
Answer: 0

Question: Which IC50-based peak height does the source give for B3 here?
Answer: 0

Target: Serum samples collected at week 16 from patients immunized with UBI AD vaccine (UB-311)
Experiment: comp. ELISA, serum P101

Question: With B1 as the binder, how does the IC50-based peak height read?
Answer: 2

Question: With B2 as the binder, how does the IC50-based peak height read?
Answer: 0

Question: How did the IC50-based peak height turn out when B3 was run?
Answer: 0

Target: Serum samples collected at week 16 from patients immunized with UBI AD vaccine (UB-311)
Experiment: comp. ELISA, serum P106

Question: B1 was tested. Which IC50-based peak height did it give?
Answer: 0

Question: For B2, which IC50-based peak height is on record?
Answer: 0

Question: For B3, which IC50-based peak height is on record?
Answer: 0

Target: Serum samples collected at week 16 from patients immunized with UBI AD vaccine (UB-311)
Experiment: comp. ELISA, serum P202

Question: How did the IC50-based peak height turn out when B1 was run?
Answer: 0

Question: With B2 as the binder, how does the IC50-based peak height read?
Answer: 0

Question: How did the IC50-based peak height turn out when B3 was run?
Answer: 0

Target: Serum samples collected at week 16 from patients immunized with UBI AD vaccine (UB-311)
Experiment: comp. ELISA, serum P210

Question: B1 was tested. Which IC50-based peak height did it give?
Answer: 0

Question: For B2, which IC50-based peak height is on record?
Answer: 0

Question: Which IC50-based peak height does the source give for B3 here?
Answer: 0

Target: Serum samples collected at week 16 from patients immunized with UBI AD vaccine (UB-311)
Experiment: comp. ELISA, serum P103

Question: How did the IC50-based peak height turn out when B1 was run?
Answer: 0

Question: With B2 as the binder, how does the IC50-based peak height read?
Answer: 0

Question: B3 was tested. Which IC50-based peak height did it give?
Answer: 0

Target: Immune sera of baboons immunized with UBI AD vaccine
Experiment: competitive inhibition ELISA

Question: What does the source list for B1?
Answer: % inhibition at 0 µg/mL: 0%; % inhibition at 0.25 µg/mL: 3%; % inhibition at 0.5 µg/mL: 0%; % inhibition at 1 µg/mL: 0%; % inhibition at 2 µg/mL: 0%; % inhibition at 8 µg/mL: 6%; % inhibition at 32 µg/mL: 19%

Target: Serum samples collected at week 16 from patients immunized with UBI AD vaccine (UB-311)
Experiment: comp. ELISA, serum P205

Question: For B1, which IC50-based peak height is on record?
Answer: 0

Question: B2 was tested. Which IC50-based peak height did it give?
Answer: 0

Question: Which IC50-based peak height does the source give for B3 here?
Answer: 0

Target: Serum samples collected at week 16 from patients immunized with UBI AD vaccine (UB-311)
Experiment: comp. ELISA, serum P108

Question: How did the IC50-based peak height turn out when B1 was run?
Answer: 0

Question: Which IC50-based peak height does the source give for B2 here?
Answer: 0

Question: B3 was tested. Which IC50-based peak height did it give?
Answer: 0

Target: Serum samples collected at week 16 from patients immunized with UBI AD vaccine (UB-311)
Experiment: comp. ELISA, serum P104

Question: How did the IC50-based peak height turn out when B1 was run?
Answer: 0

Question: B2 was tested. Which IC50-based peak height did it give?
Answer: 0

Question: How did the IC50-based peak height turn out when B3 was run?
Answer: 0

Target: Serum samples collected at week 16 from patients immunized with UBI AD vaccine (UB-311)
Experiment: comp. ELISA, serum P207

Question: For B1, which IC50-based peak height is on record?
Answer: 0

Question: With B2 as the binder, how does the IC50-based peak height read?
Answer: 0

Question: With B3 as the binder, how does the IC50-based peak height read?
Answer: 0

Target: Serum samples collected at week 16 from patients immunized with UBI AD vaccine (UB-311)
Experiment: comp. ELISA, serum P201

Question: How did the IC50-based peak height turn out when B1 was run?
Answer: 3

Question: B2 was tested. Which IC50-based peak height did it give?
Answer: 0

Question: How did the IC50-based peak height turn out when B3 was run?
Answer: 0

Target: Serum samples collected at week 16 from patients immunized with UBI AD vaccine (UB-311)
Experiment: comp. ELISA, serum P204

Question: B1 was tested. Which IC50-based peak height did it give?
Answer: 0

Question: For B2, which IC50-based peak height is on record?
Answer: 0

Question: How did the IC50-based peak height turn out when B3 was run?
Answer: 0

Target: Serum samples collected at week 16 from patients immunized with UBI AD vaccine (UB-311)
Experiment: comp. ELISA, serum P107

Question: B1 was tested. Which IC50-based peak height did it give?
Answer: 0

Question: For B2, which IC50-based peak height is on record?
Answer: 0

Question: B3 was tested. Which IC50-based peak height did it give?
Answer: 0

Target: Serum samples collected at week 16 from patients immunized with UBI AD vaccine (UB-311)
Experiment: comp. ELISA, serum P206

Question: For B1, which IC50-based peak height is on record?
Answer: 0

Question: For B2, which IC50-based peak height is on record?
Answer: 0

Question: How did the IC50-based peak height turn out when B3 was run?
Answer: 0

Target: Serum samples collected at week 16 from patients immunized with UBI AD vaccine (UB-311)
Experiment: comp. ELISA, serum P209

Question: How did the IC50-based peak height turn out when B1 was run?
Answer: 0

Question: B2 was tested. Which IC50-based peak height did it give?
Answer: 0

Question: For B3, which IC50-based peak height is on record?
Answer: 0

Target: Serum samples collected at week 16 from patients immunized with UBI AD vaccine (UB-311)
Experiment: comp. ELISA, serum P208

Question: With B1 as the binder, how does the IC50-based peak height read?
Answer: 0

Question: How did the IC50-based peak height turn out when B2 was run?
Answer: 0

Question: How did the IC50-based peak height turn out when B3 was run?
Answer: 0

Target: Serum samples collected at week 16 from patients immunized with UBI AD vaccine (UB-311)
Experiment: comp. ELISA, serum P109

Question: For B1, which IC50-based peak height is on record?
Answer: 0

Question: B2 was tested. Which IC50-based peak height did it give?
Answer: 0

Question: With B3 as the binder, how does the IC50-based peak height read?
Answer: 0

Target: Serum samples collected at week 16 from patients immunized with UBI AD vaccine (UB-311)
Experiment: comp. ELISA, serum P102

Question: With B1 as the binder, how does the IC50-based peak height read?
Answer: 0

Question: B2 was tested. Which IC50-based peak height did it give?
Answer: 0

Question: How did the IC50-based peak height turn out when B3 was run?
Answer: 0

Target: Serum samples collected at week 16 from patients immunized with UBI AD vaccine (UB-311)
Experiment: comp. ELISA, serum P203

Question: For B1, which IC50-based peak height is on record?
Answer: 0

Question: For B2, which IC50-based peak height is on record?
Answer: 0

Question: B3 was tested. Which IC50-based peak height did it give?
Answer: 0
